Test results published in the supplement of paper PMC7877785.
± gives the uncertainty stated by the source.

Experiment: self-splicing fitness, log relative to wild type (ln ratio); higher = more splicing; Tetrahymena group I intron in knt gene, E. coli kanamycin selection, DiMSum; sequences stand for … in CUCUCU…GGAGGGAAAAGUUAUCAGGCAUGCACCUGGUAGCUAGUCUUUAAACCAAUAGAUUGCAUCGGUUUAAAAGGCAAGACCGUCAAAUUGCGGGAAAGGGGUCAACAGCCGUUCAGUACCAAGUCUCAGGGGAAACUUUGAGAUGGCCUUGCAAAGGGUAUGGUAAUAAGCUGACGGACAUGGUCCUAACCACGCAGCCAAGUCCUAAGUCAACAGAUCUUCUGUUGAUAUGGAUGCAGUUCACAGACUAAAUGUCGGUCGGGGAAGAUGUAUUCUUCUCAUAAGAUAUAGUCGGACCUCUCCUUAAUGGGAGCUAGCGGAUGAAGUGAUGCAACACUGGAGCCGCUGGGAACUAAUUUGUAUGCGAAAGUAUAUUGAUUAGUUUUGGAGUACUCGUGGUCG
How it was run: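 Library with all eight P1ex-region intron nucleotides randomised, intron inside the knt kanamycin-resistance gene on pET-22b(+), in E. coli BL21(DE3). Cells grew overnight at 37°C or 30°C on LB agar with or without 25 μg/mL kanamycin (plus 100 μg/mL carbenicillin, 50 μM IPTG, 0.2% rhamnose), in six replicate transformations. Pooled colonies were amplicon-sequenced on Illumina HiSeq 2500. DiMSum fitness is the error-weighted combination of wild-type-normalised replicate fold changes, kanamycin versus none.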

Sequence	self-splicing fitness (ln) (30 °C)	self-splicing fitness (ln) (37 °C)
GAGCAGCAAUAUUACGUAGU	-3.35 ± 0.19	-1.01 ± 0.15
AGAUAGCAAUAUUACGACUG	-1.38 ± 0.2	0.221 ± 0.29
AGCGAGCAAUAUUACGUCAU	-3.13 ± 0.21	-1.88 ± 0.2
CAUAAGCAAUAUUACGUAUA	-3.21 ± 0.12	-2.32 ± 0.13
AUUCAGCAAUAUUACGAUGU	0.173 ± 0.082	0.209 ± 0.099
CCUGAGCAAUAUUACGGCAU	-3.93 ± 0.23	-4.08 ± 0.42
CGAGAGCAAUAUUACGAUUG		-2.09 ± 0.34
AUGCAGCAAUAUUACGCGUG	-3.92 ± 0.17	-2.59 ± 0.18
UAUAAGCAAUAUUACGUCGA	-1.56 ± 0.14	-0.891 ± 0.16
GACCAGCAAUAUUACGUAUU	-0.471 ± 0.049	-0.139 ± 0.062
GAGCAGCAAUAUUACGACGU	-0.383 ± 0.072	-0.812 ± 0.079
ACCAAGCAAUAUUACGGGUC	-4.12 ± 0.17	-2.67 ± 0.14
CGGCAGCAAUAUUACGCAAU	-3.47 ± 0.2	-1.77 ± 0.19
AACUAGCAAUAUUACGUAGC	-4.04 ± 0.26	-2.12 ± 0.21
CAUGAGCAAUAUUACGGCGA	-3.34 ± 0.31	-2.53 ± 0.25
GCCCAGCAAUAUUACGAGAG	-2.63 ± 0.096	-1.42 ± 0.1
GACGAGCAAUAUUACGCUCC	-2.9 ± 0.29	-1.91 ± 0.34
AAAUAGCAAUAUUACGAUUG	-2.16 ± 0.15	-1.31 ± 0.18
UAGGAGCAAUAUUACGAUGA	-2.75 ± 0.26	-1.53 ± 0.21
UCCUAGCAAUAUUACGCCGU	-1.83 ± 0.26	-0.887 ± 0.24
ACCCAGCAAUAUUACGAUGG	-2.94 ± 0.095	-1.26 ± 0.085
CCUAAGCAAUAUUACGAAGC	-2.92 ± 0.18	-1.92 ± 0.28
GAUAAGCAAUAUUACGUGAA	-2.2 ± 0.13	-1.63 ± 0.15
CAUGAGCAAUAUUACGAGCU	-2.78 ± 0.23	
GUAUAGCAAUAUUACGCACC	-1.85 ± 0.17	-1.66 ± 0.27
CCAGAGCAAUAUUACGCUAU	-3.78 ± 0.43	-2.26 ± 0.37

Sequence	self-splicing fitness (ln) (30 °C)	self-splicing fitness (ln) (37 °C)
UACGAGCAAUAUUACGGGCU		-2.43 ± 0.27
UCUAAGCAAUAUUACGCAAA	-3.34 ± 0.21	-2.97 ± 0.2
CGCCAGCAAUAUUACGCAUU	-3.11 ± 0.25	-2.01 ± 0.18
CAAAAGCAAUAUUACGGCGG	-0.363 ± 0.061	-0.395 ± 0.079
CCCAAGCAAUAUUACGCCUG	-3.12 ± 0.19	-2.88 ± 0.27
CCAGAGCAAUAUUACGUCGG	-4.42 ± 0.17	-2.2 ± 0.13
CCGAAGCAAUAUUACGCCCG	-0.442 ± 0.13	0.42 ± 0.26
UGGGAGCAAUAUUACGGCGC	-1.12 ± 0.38	
AACAAGCAAUAUUACGACCU	0.219 ± 0.086	0.125 ± 0.1
AGACAGCAAUAUUACGGAUG	-2.81 ± 0.11	-2.38 ± 0.17
AGGAAGCAAUAUUACGCGGA	-2.32 ± 0.22	-1.29 ± 0.17
CCAAAGCAAUAUUACGAAUG	-1.03 ± 0.07	-0.166 ± 0.092
AGUGAGCAAUAUUACGUUAG	-2.97 ± 0.19	-2.03 ± 0.17
CAUUAGCAAUAUUACGACGU	-1.47 ± 0.12	-0.0623 ± 0.14
GACUAGCAAUAUUACGCUUU	-2.59 ± 0.19	-1.66 ± 0.16
GGUAAGCAAUAUUACGGUAA	-1.6 ± 0.17	-0.53 ± 0.14
AGCGAGCAAUAUUACGAGAU	-4.2 ± 0.3	-2.15 ± 0.19
AGCUAGCAAUAUUACGUCGU	-1.38 ± 0.1	-1.4 ± 0.14
AUUAAGCAAUAUUACGCCGU	-0.62 ± 0.1	-0.369 ± 0.14
AUAUAGCAAUAUUACGCAGG	-3.74 ± 0.31	-1.69 ± 0.23
CUCGAGCAAUAUUACGACUG	-1.28 ± 0.1	-0.299 ± 0.15
ACGUAGCAAUAUUACGACAA	-0.894 ± 0.071	-0.495 ± 0.084
CAGCAGCAAUAUUACGAAUU	-4.16 ± 0.27	-2.23 ± 0.23
UACCAGCAAUAUUACGCUCU	-0.618 ± 0.072	0.00956 ± 0.082
UAGUAGCAAUAUUACGAUUG	-0.0683 ± 0.084	-0.0425 ± 0.12
GUUAAGCAAUAUUACGUACA	-1.04 ± 0.11	-0.694 ± 0.16

Sequence	self-splicing fitness (ln) (30 °C)	self-splicing fitness (ln) (37 °C)
CGAGAGCAAUAUUACGUCAC	-4.62 ± 0.39	-2.45 ± 0.3
CCCCAGCAAUAUUACGUAGC	-3.93 ± 0.16	-2.93 ± 0.2
AAAGAGCAAUAUUACGCUCG	-2.17 ± 0.12	-0.963 ± 0.12
GUUUAGCAAUAUUACGCGCG	-0.802 ± 0.1	-0.0312 ± 0.18
CCCCAGCAAUAUUACGUGAA	-4.42 ± 0.13	-2.44 ± 0.099
GUUUAGCAAUAUUACGAUUC	-0.603 ± 0.098	0.273 ± 0.14
AGGAAGCAAUAUUACGUUAA	-3.22 ± 0.18	-1.72 ± 0.12
AGCAAGCAAUAUUACGACAC	-1.21 ± 0.085	-0.583 ± 0.11
GGCCAGCAAUAUUACGAUAU	-1.67 ± 0.08	-1.78 ± 0.1
CUUUAGCAAUAUUACGCGAU	-3.05 ± 0.24	-0.751 ± 0.17
UUCUAGCAAUAUUACGACGA	-0.439 ± 0.12	0.731 ± 0.14
GUGCAGCAAUAUUACGUUAA	-1.75 ± 0.13	-1.25 ± 0.13
CGACAGCAAUAUUACGCGCG	-2.61 ± 0.19	-1.8 ± 0.18
GAACAGCAAUAUUACGCUUU	-2.71 ± 0.14	-1.93 ± 0.15
UAAAAGCAAUAUUACGAAGC	-3.23 ± 0.3	-3.29 ± 0.46
GGUAAGCAAUAUUACGUUAA	-2.57 ± 0.29	-1.37 ± 0.2
AGUAAGCAAUAUUACGGCGA	-0.491 ± 0.12	0.468 ± 0.17
AAGGAGCAAUAUUACGCGUC	-2.96 ± 0.37	
CCGGAGCAAUAUUACGGACC	-2.12 ± 0.4	-1.64 ± 0.45
CUUCAGCAAUAUUACGUCGU	-4.07 ± 0.14	-2.88 ± 0.12
CUCGAGCAAUAUUACGCUGU		-2.66 ± 0.44
GAUUAGCAAUAUUACGUGCA	-1.7 ± 0.14	-0.0754 ± 0.09
GCAAAGCAAUAUUACGUGCU	-3.46 ± 0.12	-2.73 ± 0.17
AAGCAGCAAUAUUACGUUAU	-2.38 ± 0.089	-1.21 ± 0.1
CGGUAGCAAUAUUACGGUAG	-0.557 ± 0.071	-0.0774 ± 0.089
